Like-named read-outs stand apart in the source and are kept apart here.

For orientation: EC50 (read off the curve) means the midpoint of the concentration-response curve. Lower therefore signals a more potent agent.

Assay [1] concerns the target T1, human CD123 (full-length, on cells) (human, UniProt P26951 19-378).
T1 construct: also called CD123-FL; interleukin-3 receptor alpha chain
Kind of assay: flow cytometry, HEK 293 cells transfected with full-length CD123 (CD123-FL); Median RL-1H. The procedure: (§1) Binding of sdAbs to human CD123 was assessed by flow cytometry. […] HEK 293 cells were transiently transfected with a plasmid encoding full-length CD123 (UniProt Accession No. P26951-1; mature form, SEQ ID NO: 1) and used as the positive cell line in FIGS. 2A to 2M, and untransfected HEK 293 cells were used as CD123-negative cells. In FIG. 2N, Molm-13 cells, which express CD123, were used as the positive cell line. Each cell type was plated at 30,000 cells/well in FACS buffer (PBS 1% BSA, 0.1% NaN₃ pH 7.4) on a 96-well round-bottom plate. The sdAbs were diluted in FACS buffer in a 3-fold, 11 point serial dilution. The sdAb dilutions were added to the plated cells, and assay plates were incubated for 30 minutes at 4° C. After washing twice in 150 μL of FACS buffer, cells in each well were resuspended in 100 μL of 1:2000 Alexa Fluor 647-conjugated Anti-Human IgG secondary diluted in FACS buffer and incubated at 4° C. for 30 minutes. The cells were washed twice more, then bound antibody was detected by flow cytometry.
(§2) Flow cytometric analysis was performed on an Intellicyte iQue Plus and fluorescence was plotted as median fluorescence intensity. The apparent affinity (Kd, nM) was determined using one site binding non-linear regression in PRISM graph software.
On the technique in general: A flow cytometer gives signals particle by particle.
Target sequence in this assay (P26951 19-378): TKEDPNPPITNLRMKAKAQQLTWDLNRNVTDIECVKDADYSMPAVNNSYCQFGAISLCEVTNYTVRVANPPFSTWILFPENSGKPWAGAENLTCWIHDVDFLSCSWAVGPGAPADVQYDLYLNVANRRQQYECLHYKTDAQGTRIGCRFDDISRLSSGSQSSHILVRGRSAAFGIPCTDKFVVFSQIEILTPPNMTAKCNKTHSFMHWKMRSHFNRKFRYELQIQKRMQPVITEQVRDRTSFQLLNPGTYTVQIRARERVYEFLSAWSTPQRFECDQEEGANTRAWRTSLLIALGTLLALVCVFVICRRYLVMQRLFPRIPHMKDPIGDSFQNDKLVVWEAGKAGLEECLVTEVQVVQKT

The target in assay [2] is T2, CD123-his.
T2 construct: also called histidine tagged human CD123; His-tagged CD123 ECD
T2 extracellular domain with C-terminal His tag: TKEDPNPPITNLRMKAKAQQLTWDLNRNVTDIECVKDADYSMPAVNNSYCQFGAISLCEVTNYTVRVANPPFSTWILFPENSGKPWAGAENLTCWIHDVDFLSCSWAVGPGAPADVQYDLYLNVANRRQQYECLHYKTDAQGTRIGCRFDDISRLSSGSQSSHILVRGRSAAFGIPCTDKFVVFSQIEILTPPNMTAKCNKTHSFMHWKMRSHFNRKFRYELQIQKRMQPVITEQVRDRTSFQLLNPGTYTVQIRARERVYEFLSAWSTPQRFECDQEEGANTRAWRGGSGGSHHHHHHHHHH
Description: BLI, CD123-his on Ni-NTA sensors preloaded with hzA5v2, second sdAb 100 nM. The procedure:
(§3) The epitopes of single domain antibodies (sdAbs) that comprise VHH domains that bind CD123 were compared using Bio-Layer Interferometry. 5 ug/mL of histidine tagged human CD123 was immobilized on Nickel-nitrilotriacetic acid (Ni-NTA) coated capture sensors. 100 nM of one sdAb was then loaded onto the CD123 antigen and allowed to come to equilibrium. The sensors were then transferred into 100 nM of a second sdAb.
(In general: BLI is a label-free optical method that tracks binding on a fibre tip over time.)

Assay [3] concerns the target T1, human CD123 (full-length, on cells). Kind of assay: flow cytometry blocking assay, sdAb titrated on CD123-expressing HEK-293 cells with a fixed amount of IL-3-mFc. The method, then:
(§4) Certain CD123-binding sdAbs were tested for the ability to block CD123 binding to IL-3 by titrating the sdAb onto CD123 expressing HEK-293 cells in the presence of a fixed amount of recombinant IL-3-mFc. Bound IL-3 was detected by flow cytometry using fluorophore conjugated anti-mouse IgG specific secondary antibody.

The target is the same in assay [4]. The assay is described as above. The procedure: as §4
The source holds these as a separate data set.

Assay [5] shares this target. Description: flow cytometry, Molm-13 cells expressing CD123; Median RL1-H. The procedure:
as §1, §2

For assay [6] the target is unchanged. Kind of assay: flow cytometry on Molm-13 cells, which express CD123; apparent Kd, one-site fit; apparent Kd by flow cytometry on CD123-expressing cells; the places shown do not name the cell line for this sdAb. The method, then:
as §1, §2

For assay [7] the target is unchanged. Kind of assay: flow cytometry on HEK 293 cells transfected with full-length CD123; apparent Kd, one-site fit. The method, then: as §1, §2
Target sequence in this assay (P26951 19-378): as the sequence (P26951 19-378) above
The target in assay [8] is T2, CD123-his. Description: BLI, CD123-his on Ni-NTA sensors preloaded with hz1B11v28, second sdAb 100 nM. The procedure: as §3

B1: C5-IgG1 (Fc fusion)
chain: QVTLRESGGGLVQAGGSLRLSCKGSGRAINTYAMGWFRQAPGKEREFVAAISWNGGHTRYADSVQGRFAISRDNADNTMYLQMNSLKPEDTAVYHCAAYSDYHRIATMEADADSWGQGTQVTVDKTHTCPPCPAPGGPSVFLFPPKPKDTLMISRTPEVTCVVVDVSHEDPEVKFNWYVDGVEVHNAKTKPREEQYNSTYRVVSVLTVLHQDWLNGKEYKCKVSNKALPAPIEKTISKAKGQPREPQVYTLPPSRDELTKNQVSLTCLVKGFYPSDIAVEWESNGQPENNYKTTPPVLDSDGSFFLYSKLTVDKSRWQQGNVFSCSVMHEALHNHYTQKSLSLSPGK
notes: also called sdAb C5
With B1, the “EC50 (read off the curve)” value in assay [1] is about 1 nM. In addition, the binding result in assay [2] is recorded as “binds”. The “IC50 (read off the curve)” value in assay [3] is about 2 nM; in assay [4], about 0.7 nM.

B2: hz1F5v6-IgG1 (Fc fusion)
chain: EVQLVESGGGEVQPGGSLRLSCAASGRAINMYAMGWFRQAPGKEREFVAAINWNAAYTQYAESVKGRFTISRDNAKNTLYLQMSSLRAEDTAVYYCSADADYNTYVSPNKRVSYWGQGTLVTVKPDKTHTCPPCPAPGGPSVFLFPPKPKDTLMISRTPEVTCVVVDVSHEDPEVKFNWYVDGVEVHNAKTKPREEQYNSTYRVVSVLTVLHQDWLNGKEYKCKVSNKALPAPIEKTISKAKGQPREPQVYTLPPSRDELTKNQVSLTCLVKGFYPSDIAVEWESNGQPENNYKTTPPVLDSDGSFFLYSKLTVDKSRWQQGNVFSCSVMHEALHNHYTQKSLSLSPGK
In the case of B2, the “EC50 (read off the curve)” value in assay [5] was about 1 nM. For the same molecule, the Kd in assay [6] stood at 1.36 nM.

B3: hz4F2v3-IgG1 (Fc fusion)
chain: EVQLVESGGGEVQPGGSLRLSCAASGRTVSNYPMAWFRQAPGKEREFVAHISWSGITSILNSVNDRFTISRDNAKNTIYLQMSSLRAEDTAVYYCAAAQRPTAGPKGPFGYWGQGTLVTVDKTHTCPPCPAPGGPSVFLFPPKPKDTLMISRTPEVTCVVVDVSHEDPEVKFNWYVDGVEVHNAKTKPREEQYNSTYRVVSVLTVLHQDWLNGKEYKCKVSNKALPAPIEKTISKAKGQPREPQVYTLPPSRDELTKNQVSLTCLVKGFYPSDIAVEWESNGQPENNYKTTPPVLDSDGSFFLYSKLTVDKSRWQQGNVFSCSVMHEALHNHYTQKSLSLSPGK
notes: also called hz4F2v3 sdAb
Take B3: the “EC50 (read off the curve)” value in assay [1] was in the range of 2 to 3 nM. The Kd in assay [7] was 2.4 nM. In addition, the binding result in assay [8] was “binds”.

B4: hz1F5v1-IgG1 (Fc fusion)
chain: EVQLVESGGGEVQPGGSLRLSCAASGRAINMYAMGWFRQAPGKEREFVAAINWNGAYTQYAESVKGRFTISRDNAKNTLYLQMSSLRAEDTAVYYCSADADYNTYVSPNKRVSYWGQGTLVTVDKTHTCPPCPAPGGPSVFLFPPKPKDTLMISRTPEVTCVVVDVSHEDPEVKFNWYVDGVEVHNAKTKPREEQYNSTYRVVSVLTVLHQDWLNGKEYKCKVSNKALPAPIEKTISKAKGQPREPQVYTLPPSRDELTKNQVSLTCLVKGFYPSDIAVEWESNGQPENNYKTTPPVLDSDGSFFLYSKLTVDKSRWQQGNVFSCSVMHEALHNHYTQKSLSLSPGK
With B4, the “EC50 (read off the curve)” value in assay [1] is about 0.6 nM. Besides, the Kd in assay [7] came out at 0.58 nM. Besides, the binding result in assay [2] is listed as “binds”. Moreover, the “IC50 (read off the curve)” value in assay [4] is about 1 nM.
